This note sets out measurements from the supplement of paper PMC9112550, “Optimization of the antimicrobial peptide Bac7 by deep mutational scanning” (BMC Biology, 2022).

This series relates to Escherichia coli TOP10. The experiment in a line: shrunken log2 fold change of peptide-encoding DNA abundance (4.5 h post-induction vs induction); higher = less antimicrobial activity (less host growth inhibition). The following applies: time post-induction: 4.5 h; library: site-saturation at positions 5, 18, 19, 20.
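Note: peptides expressed intracellularly from a pBAD plasmid library in pooled LB shake-flask culture, induced with 0.3% L-arabinose, DNA abundance read by NGS, three biological replicates, DESeq2 with apeglm shrinkage.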

RRIRCRPPRLPRPRPRPFQEPRP: the “shrunken log2 fold change” value was -0.101.
Consider RRIRMRPPRLPRPRPRPGYKPRP, for which the “shrunken log2 fold change” value is -0.517.
For RRIRDRPPRLPRPRPRPMHVPRP, the “shrunken log2 fold change” value was -0.00476.
In the case of RRIRFRPPRLPRPRPRPHSHPRP it was -0.939; in that of RRIRLRPPRLPRPRPRPVCNPRP, -0.0299.
In the case of RRIRIRPPRLPRPRPRPMKSPRP it was -0.161; in that of RRIRMRPPRLPRPRPRPPINPRP, -0.195.
In the case of RRIRKRPPRLPRPRPRPHELPRP it was 0.509.
For the sequence RRIRRRPPRLPRPRPRPTDSPRP, the “shrunken log2 fold change” value was found to be 0.485.
In the case of RRIRQRPPRLPRPRPRPFMFPRP it was -0.144.
In the case of RRIRERPPRLPRPRPRPVRVPRP it was 0.247; in that of RRIRDRPPRLPRPRPRPCMDPRP, 0.0285.
In the case of RRIRVRPPRLPRPRPRPWPHPRP it was -0.103.
For the sequence RRIRERPPRLPRPRPRPNDTPRP, the “shrunken log2 fold change” value is -0.348.
In the case of RRIRTRPPRLPRPRPRPCSIPRP it was -0.472; in that of RRIRDRPPRLPRPRPRPTSKPRP, 0.168; in that of RRIRSRPPRLPRPRPRPKMPPRP, 0.0106.
In the case of RRIRIRPPRLPRPRPRPQVIPRP it was -0.0417; in that of RRIRYRPPRLPRPRPRPVLQPRP, -0.297.
In the case of RRIRRRPPRLPRPRPRPVIEPRP it was 0.119.
Regarding RRIRPRPPRLPRPRPRPIMEPRP, the “shrunken log2 fold change” value was -0.159.
In the case of RRIRQRPPRLPRPRPRPSSTPRP it was -0.215; in that of RRIRERPPRLPRPRPRPQHGPRP, -0.102.
Regarding RRIRPRPPRLPRPRPRPFWDPRP, the “shrunken log2 fold change” value is -0.465.
As to RRIRRRPPRLPRPRPRPIRLPRP, the “shrunken log2 fold change” value was -0.104.
In the case of RRIRSRPPRLPRPRPRPGWCPRP, the “shrunken log2 fold change” value is 0.0616.
As to RRIRIRPPRLPRPRPRPRYFPRP, the “shrunken log2 fold change” value is -0.769.
In the case of RRIRCRPPRLPRPRPRPSMEPRP, the “shrunken log2 fold change” value was -0.344.
In the case of RRIRVRPPRLPRPRPRPNRSPRP it was -0.0169; in that of RRIRTRPPRLPRPRPRPSLAPRP, 0.105; in that of RRIRWRPPRLPRPRPRPFEDPRP, 0.104.
In the case of RRIRQRPPRLPRPRPRPADTPRP it was -0.128.
In the case of RRIRRRPPRLPRPRPRPICFPRP it was 0.496.
RRIRDRPPRLPRPRPRPYFAPRP: the “shrunken log2 fold change” value is -0.413.
In the case of RRIRHRPPRLPRPRPRPPHKPRP it was 0.0336; in that of RRIRGRPPRLPRPRPRPMESPRP, 0.295.
In the case of RRIRWRPPRLPRPRPRPTYHPRP it was -0.0794; in that of RRIRQRPPRLPRPRPRPSYNPRP, -0.723; in that of RRIRLRPPRLPRPRPRPPNAPRP, 0.121.
In the case of RRIRGRPPRLPRPRPRPEPEPRP it was 1.51; in that of RRIRKRPPRLPRPRPRPGFSPRP, 0.297.
For the sequence RRIRNRPPRLPRPRPRPKNHPRP, the “shrunken log2 fold change” value is -0.19.
In the case of RRIRCRPPRLPRPRPRPIYYPRP it was -0.653; in that of RRIRSRPPRLPRPRPRPAMLPRP, 0.0679; in that of RRIRHRPPRLPRPRPRPTWSPRP, 0.0859.
In the case of RRIRQRPPRLPRPRPRPFLTPRP it was -0.156; in that of RRIRPRPPRLPRPRPRPVCTPRP, 0.0082; in that of RRIRKRPPRLPRPRPRPGCPPRP, 0.0566.
In the case of RRIRRRPPRLPRPRPRPVWAPRP it was 0.339.
Regarding RRIRMRPPRLPRPRPRPTNGPRP, the “shrunken log2 fold change” value was -0.0328.
In the case of RRIRFRPPRLPRPRPRPCPCPRP it was -0.21; in that of RRIRMRPPRLPRPRPRPIEYPRP, 0.048.
In the case of RRIRKRPPRLPRPRPRPWSMPRP it was -0.0905; in that of RRIRKRPPRLPRPRPRPTDIPRP, -0.0678.
RRIRFRPPRLPRPRPRPSKCPRP: the “shrunken log2 fold change” value is -0.26.
In the case of RRIRARPPRLPRPRPRPCPGPRP it was -0.258; in that of RRIRCRPPRLPRPRPRPSDSPRP, -0.34.
For RRIRKRPPRLPRPRPRPWWRPRP, the “shrunken log2 fold change” value is -0.108.
In the case of RRIRRRPPRLPRPRPRPGWEPRP it was 0.393.
In the case of RRIRARPPRLPRPRPRPNMMPRP it was -0.142.
For RRIRGRPPRLPRPRPRPNGTPRP, the “shrunken log2 fold change” value was determined as 0.54.
In the case of RRIRERPPRLPRPRPRPFDKPRP it was -1.7.
In the case of RRIRPRPPRLPRPRPRPIFRPRP it was -0.0135; in that of RRIRSRPPRLPRPRPRPPCMPRP, 0.464; in that of RRIRMRPPRLPRPRPRPMPWPRP, 0.169.
RRIRWRPPRLPRPRPRPDQFPRP: the “shrunken log2 fold change” value is -0.0202.
In the case of RRIRVRPPRLPRPRPRPFYFPRP it was -0.493.
In the case of RRIRWRPPRLPRPRPRPHDAPRP, the “shrunken log2 fold change” value was -0.145.
In the case of RRIRCRPPRLPRPRPRPTMPPRP it was -0.281; in that of RRIRERPPRLPRPRPRPMCTPRP, 0.107.
In the case of RRIRTRPPRLPRPRPRPECFPRP, the “shrunken log2 fold change” value amounted to 0.146.
In the case of RRIRSRPPRLPRPRPRPAYGPRP it was -0.122.
On to RRIRFRPPRLPRPRPRPGIRPRP, for which the “shrunken log2 fold change” value is -0.136.
In the case of RRIRVRPPRLPRPRPRPYFSPRP it was -0.267; in that of RRIRYRPPRLPRPRPRPHWVPRP, 0.0405.
Turning to RRIRTRPPRLPRPRPRPRASPRP, the “shrunken log2 fold change” value worked out at 0.367.
In the case of RRIRLRPPRLPRPRPRPQCQPRP it was -0.399; in that of RRIRKRPPRLPRPRPRPQHSPRP, -0.288.
RRIRQRPPRLPRPRPRPIPDPRP: the “shrunken log2 fold change” value is -0.07.
Turning to RRIRVRPPRLPRPRPRPIAIPRP, the “shrunken log2 fold change” value is -0.0841.
In the case of RRIRMRPPRLPRPRPRPDTKPRP it was 0.0742; in that of RRIRWRPPRLPRPRPRPQCLPRP, -0.073.
Turning to RRIRSRPPRLPRPRPRPPSFPRP, the “shrunken log2 fold change” value was 0.0731.
In the case of RRIRDRPPRLPRPRPRPGPMPRP it was -0.00245; in that of RRIRQRPPRLPRPRPRPGDDPRP, 0.176.
In the case of RRIRPRPPRLPRPRPRPKFTPRP it was -0.141; in that of RRIRMRPPRLPRPRPRPTLTPRP, 1.4.
Regarding RRIRIRPPRLPRPRPRPRSCPRP, the “shrunken log2 fold change” value amounted to 0.16.
In the case of RRIRVRPPRLPRPRPRPDHFPRP it was -0.0417; in that of RRIRWRPPRLPRPRPRPDAIPRP, -0.0199; in that of RRIRDRPPRLPRPRPRPVPLPRP, 0.0621.
In the case of RRIRFRPPRLPRPRPRPCAMPRP it was -0.561.
In the case of RRIRQRPPRLPRPRPRPRGCPRP it was 0.199; in that of RRIRQRPPRLPRPRPRPEFGPRP, -0.0374.
Turning to RRIRNRPPRLPRPRPRPQVKPRP, the “shrunken log2 fold change” value came to 0.0117.
In the case of RRIRKRPPRLPRPRPRPQEWPRP it was -0.0193; in that of RRIRIRPPRLPRPRPRPTNCPRP, -0.649; in that of RRIRQRPPRLPRPRPRPDHIPRP, -0.0197.
In the case of RRIRARPPRLPRPRPRPPCMPRP it was 0.099; in that of RRIRHRPPRLPRPRPRPKNRPRP, -0.227; in that of RRIRLRPPRLPRPRPRPPKIPRP, 0.0251.
Consider RRIRKRPPRLPRPRPRPHQVPRP, for which the “shrunken log2 fold change” value is -0.182.
In the case of RRIRTRPPRLPRPRPRPSTRPRP it was -0.296.
In the case of RRIRDRPPRLPRPRPRPVYLPRP it was -0.219; in that of RRIRGRPPRLPRPRPRPLLRPRP, 0.485; in that of RRIRVRPPRLPRPRPRPSCSPRP, -0.338.
Consider RRIRMRPPRLPRPRPRPGENPRP, for which the “shrunken log2 fold change” value is 0.00897.
In the case of RRIRKRPPRLPRPRPRPDMAPRP it was 0.0491; in that of RRIRNRPPRLPRPRPRPHNKPRP, -0.483.
In the case of RRIRQRPPRLPRPRPRPRVPPRP it was 0.339; in that of RRIRDRPPRLPRPRPRPVCTPRP, 0.0514; in that of RRIRPRPPRLPRPRPRPFAQPRP, -0.0885.
In the case of RRIRCRPPRLPRPRPRPMEFPRP it was -0.0158; in that of RRIRFRPPRLPRPRPRPASTPRP, -0.0365; in that of RRIRERPPRLPRPRPRPYESPRP, -0.0018.
For the sequence RRIRRRPPRLPRPRPRPWVGPRP, the “shrunken log2 fold change” value is -0.00367.
In the case of RRIRSRPPRLPRPRPRPWGRPRP it was 0.196; in that of RRIRCRPPRLPRPRPRPQILPRP, -0.354.
As for RRIRHRPPRLPRPRPRPHGTPRP, the “shrunken log2 fold change” value was -0.0524.
For RRIRVRPPRLPRPRPRPPCFPRP, the “shrunken log2 fold change” value is 0.17.
In the case of RRIRERPPRLPRPRPRPNHPPRP it was -0.278.
For the sequence RRIRMRPPRLPRPRPRPKILPRP, the “shrunken log2 fold change” value worked out at 0.289.
In the case of RRIRTRPPRLPRPRPRPLWGPRP it was -0.0731; in that of RRIRQRPPRLPRPRPRPVYMPRP, -0.269.
Turning to RRIRCRPPRLPRPRPRPVQSPRP, the “shrunken log2 fold change” value was found to be 0.132.
